Experimental findings from patent US20160237119A1 (UNIVERSITY OF TOKYO, published 2016) are described below.

The target in experiment [1] is T1, c-Met-Fc chimera protein (UniProt P08581 25-932, limits assumed).
T1 construct: Captured on the SPR chip by an anti-IgG antibody; not shown: Fc part
Put plainly: SPR presumed (Biacore as in 9-1; method not given), c-Met-Fc on chip. Background: Surface plasmon resonance follows binding to a sensor surface in real time, without labels.

In experiment [2] the target is T1, c-Met-Fc chimera protein. Put plainly: SPR (Biacore), c-Met-Fc captured by anti-IgG on CM5, single-cycle kinetics. How it is done:
(§1) As a sensor chip, Sensor Chip CM5 was used and an anti-IgG antibody was immobilized on a measurement lane and a control lane by using Human Antibody Capture Kit.
(§2) On the measurement lane was immobilized c-Met-Fc, while on the control lane was immobilized Fc protein.
(§3) As a running buffer, HBS-EP+ buffer containing 0.1% DMSO was used and a dissociation constant of the thioether macrocyclic peptide was calculated at 5 different concentrations by using the single-kinetics method.

Experiment [3] has as its target T1, c-Met-Fc chimera protein. Put plainly: SPR presumed (Biacore as in 9-1; method not given), c-Met-Fc on chip. This is another data set of the same source.
The target in experiment [4] is T1, c-Met-Fc chimera protein. Put plainly: SPR (Biacore), c-Met-Fc captured by anti-IgG on CM5, single-cycle kinetics. How it is done: as §1, §2, §3
This is another data set of the same source.

In another experiment the target is T2, human c-Met (human, UniProt P08581 25-1390).
T2 construct: whole, on cells; Endogenous receptor on human cell lines; alpha and beta sub-units come from one precursor; also called c-Met protein; HGF receptor
T2 sequence (P08581 25-1390): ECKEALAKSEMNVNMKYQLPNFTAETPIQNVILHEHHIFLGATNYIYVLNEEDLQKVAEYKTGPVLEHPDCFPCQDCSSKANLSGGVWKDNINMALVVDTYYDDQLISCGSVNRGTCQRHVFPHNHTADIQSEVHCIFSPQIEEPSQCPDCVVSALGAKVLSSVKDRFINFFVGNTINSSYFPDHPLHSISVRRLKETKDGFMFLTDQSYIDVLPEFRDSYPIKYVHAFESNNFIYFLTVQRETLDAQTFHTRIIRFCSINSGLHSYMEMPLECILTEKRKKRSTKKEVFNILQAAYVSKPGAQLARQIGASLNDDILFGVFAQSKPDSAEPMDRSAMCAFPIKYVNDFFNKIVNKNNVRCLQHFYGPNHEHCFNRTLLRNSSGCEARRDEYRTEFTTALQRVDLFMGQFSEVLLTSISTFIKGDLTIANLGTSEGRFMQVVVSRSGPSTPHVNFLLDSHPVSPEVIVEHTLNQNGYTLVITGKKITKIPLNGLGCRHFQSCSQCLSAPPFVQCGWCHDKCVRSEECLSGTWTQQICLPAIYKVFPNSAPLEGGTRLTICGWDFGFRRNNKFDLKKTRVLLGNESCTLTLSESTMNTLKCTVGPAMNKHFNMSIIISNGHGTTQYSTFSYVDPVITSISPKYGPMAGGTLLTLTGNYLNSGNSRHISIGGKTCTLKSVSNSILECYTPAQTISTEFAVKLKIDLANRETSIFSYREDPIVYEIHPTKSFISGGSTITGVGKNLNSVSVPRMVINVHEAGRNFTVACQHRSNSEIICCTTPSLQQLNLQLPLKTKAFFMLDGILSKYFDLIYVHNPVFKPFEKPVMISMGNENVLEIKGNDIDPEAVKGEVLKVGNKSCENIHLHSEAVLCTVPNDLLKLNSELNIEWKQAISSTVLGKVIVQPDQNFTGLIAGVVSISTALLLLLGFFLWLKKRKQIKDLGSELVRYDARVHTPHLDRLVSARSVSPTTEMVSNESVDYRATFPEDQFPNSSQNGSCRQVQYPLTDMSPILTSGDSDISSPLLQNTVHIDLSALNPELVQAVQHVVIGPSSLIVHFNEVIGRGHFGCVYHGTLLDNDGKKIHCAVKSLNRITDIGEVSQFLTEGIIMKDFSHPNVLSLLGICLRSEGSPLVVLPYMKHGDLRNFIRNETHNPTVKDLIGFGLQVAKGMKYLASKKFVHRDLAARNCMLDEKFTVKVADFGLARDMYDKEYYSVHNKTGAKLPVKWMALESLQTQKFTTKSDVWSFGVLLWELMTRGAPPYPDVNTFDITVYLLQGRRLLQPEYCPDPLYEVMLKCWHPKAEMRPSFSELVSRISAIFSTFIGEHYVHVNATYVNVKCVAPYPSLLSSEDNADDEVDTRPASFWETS
The experiment in a line: confocal fluorescence microscopy on human c-Met expressing SNU-638 cells. The protocol: To human c-Met expressing cells (human SNU-638 cells) or human c-Met non-expressing cells (human SNU-216 cells) cultured on a glass-bottom dish were added a RPMI1640 medium containing 1 mg/L of Hoechst 33342, a nuclear staining reagent, an anti-human c-Met antibody, and 1 uM of L5-2-fluorescein, D4-3-fluorescein, D5-4-fluorescein, D4-3NMe-fluorescein, or D4-3scr-fluorescein and the resulting mixture was incubated in 5% CO₂ at 37° C. for 5 minutes. Then, a RPMI1640 medium containing an HRP-anti-rat secondary antibody and 1 μM of L5-2-fluorescein, D4-3-fluorescein, D5-4-fluorescein, D4-3NMe-fluorescein, or D4-3scr-fluorescein was added and the resulting mixture was incubated in 5% CO₂ at 37° C. for 5 minutes.
The cells were washed three times with a D-MEM medium and were microscopically observed in a new RPMI1640 medium. The localization of the peptide was observed using a confocal fluorescence microscope for the microscopic observation.

Bridges are numbered along the chain shown (N, C = ends). Where no end group is shown, it is not given here. fluorescein = fluorescein fluorescent label attached to the peptide

T1 sequence (P08581 25-932 limits assumed, change not shown): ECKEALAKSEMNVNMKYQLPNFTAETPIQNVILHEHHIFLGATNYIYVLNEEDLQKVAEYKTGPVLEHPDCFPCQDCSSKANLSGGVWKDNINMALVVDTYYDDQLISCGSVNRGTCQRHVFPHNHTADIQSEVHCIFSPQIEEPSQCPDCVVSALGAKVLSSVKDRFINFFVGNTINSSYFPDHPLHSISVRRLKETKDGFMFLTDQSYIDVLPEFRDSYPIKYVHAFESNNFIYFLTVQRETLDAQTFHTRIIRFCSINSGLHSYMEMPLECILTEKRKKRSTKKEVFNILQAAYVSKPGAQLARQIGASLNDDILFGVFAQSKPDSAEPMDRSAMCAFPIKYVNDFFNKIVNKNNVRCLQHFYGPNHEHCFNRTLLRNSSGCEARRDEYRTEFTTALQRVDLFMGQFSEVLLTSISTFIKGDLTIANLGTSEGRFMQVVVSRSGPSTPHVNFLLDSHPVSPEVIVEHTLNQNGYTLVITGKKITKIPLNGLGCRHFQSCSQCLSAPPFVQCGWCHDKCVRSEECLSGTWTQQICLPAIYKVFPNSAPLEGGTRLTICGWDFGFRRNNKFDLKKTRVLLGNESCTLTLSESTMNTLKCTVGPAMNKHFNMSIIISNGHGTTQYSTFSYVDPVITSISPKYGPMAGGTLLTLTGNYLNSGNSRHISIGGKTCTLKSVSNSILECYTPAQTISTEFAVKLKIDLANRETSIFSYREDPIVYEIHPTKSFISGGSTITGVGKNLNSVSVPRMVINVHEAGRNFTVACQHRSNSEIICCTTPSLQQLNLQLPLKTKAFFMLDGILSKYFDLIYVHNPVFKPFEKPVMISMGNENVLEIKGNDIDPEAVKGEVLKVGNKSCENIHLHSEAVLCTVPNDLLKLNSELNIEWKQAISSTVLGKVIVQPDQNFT

Broadly, the Kd is the equilibrium constant for the complex coming apart. A high value points to a looser complex. The term koff denotes the rate constant with which the complex falls apart. Read a low koff as slow dissociation. The term kon denotes the second-order rate constant of association. Read a high kon as faster complex formation. {CH2CO}-YRQFNRRTHEVWNLDCG (thioether N-16; not fully specified, also called D4-3 peptide; D4-3 Monomer) [D4-3]: the Kd in the experiment with c-Met-Fc chimera protein [1] is 8.5 nM; with c-Met-Fc chimera protein [2], 3.4 nM; in the experiment with c-Met-Fc chimera protein [3] it was 8.5 nM; with c-Met-Fc chimera protein [4] it was 3.4 nM. Moreover, the off-rate constant (koff) with c-Met-Fc chimera protein [1] was found to be 0.011 s⁻¹; with c-Met-Fc chimera protein [2], 0.008 s⁻¹; with c-Met-Fc chimera protein [3] it was 0.011 s⁻¹; with c-Met-Fc chimera protein [4], 0.008 s⁻¹. Besides, the kon with c-Met-Fc chimera protein [1] amounted to 1.3e+06 M⁻¹ s⁻¹; in the experiment with c-Met-Fc chimera protein [2], 2.4e+06 M⁻¹ s⁻¹; with c-Met-Fc chimera protein [3] it was 1.3e+06 M⁻¹ s⁻¹; with c-Met-Fc chimera protein [4], 2.4e+06 M⁻¹ s⁻¹.
On to {CH2CO}-YERVNHLFRNQTWDRCGK(fluorescein) (thioether N-16, Negative control) [D4-3scr-fluorescein], for which, in the experiment with human c-Met, the binding result was “no binding (tested: 1 uM)”.
